According to patent US20130252983A1 (CORNELL UNIVERSITY, published 2013):

Biological target: mTOR (mammalian target of rapamycin) (UniProt Q9JLN9 1-2549)
Assay: co-immunoprecipitation of GAC proteins from Dbl-transformed cell lysates, Western blot with mTOR antibody
Description: To test this, Dbl-transformed cells were transiently transfected with wild-type GAC, GACΔC and GAC (S103A), and then these proteins were isolated from cell lysates by immunoprecipitation.

- binding result: no binding
B1: GAC (S103A), phospho-defective mutant of mouse glutaminase C (enzyme)
chain: HPWWGGGGRAKGPGAGGLSSSPSEILQELGKGGTPPQQQQQQQQQPGAAPPAAPGPKDSPGETDAFGNSEGKEMVAAGDNKIKQGLLPSLEDLLFYTIAEGQEKIPVHKFITALKSTGLRTSDPRLKECMDMLRLTLQTTSDGVMLDKDLFKKCVQSNIVLLTQAFRRKFVIPDFMSFTSHIDELYESAKKQSGGKVADYIPQLAKFSPDLWGVSVCTVDGQRHSIGDTKVPFCLQSCVKPLKYAIAVNDLGTEYVHRYVGKEPSGLRFNKLFLNEDDKPHNPMVNAGAIVVTSLIKQGVNNAEKFDYVMQFLNKMAGNEYVGFSNATFQSERESGDRNFAIGYYLKEKKCFPEGTDMVGILDFYFQLCSIEVTCESASVMAATLANGGFCPITGERVLSPEAVRNTLSLMHSCGMYDFSGQFAFHVGLPAKSGVAGGILLVVPNVMGMMCWSPPLDKMGNSVKGIHFCHDLVSLCNFHNYDNLRHFAKKLDPRREGGDQRHSFGPLDYESLQQELALKDTVWKKVSPESSDDTSTTVVYRMESLGERS
notes: Transiently expressed in Dbl-transformed NIH 3T3 cells and isolated by immunoprecipitation; not shown: V5 tag
